T1: NH2-terminal domain of DRK1 (a.a. 1-182) (Kv2.1) (rat, UniProt P15387)
T1 sequence: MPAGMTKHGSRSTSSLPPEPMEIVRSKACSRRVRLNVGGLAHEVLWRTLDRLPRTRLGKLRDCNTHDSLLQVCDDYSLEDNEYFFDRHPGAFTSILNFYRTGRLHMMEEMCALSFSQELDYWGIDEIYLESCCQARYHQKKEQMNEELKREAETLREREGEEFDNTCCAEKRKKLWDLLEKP

T2: NH2-terminal domain of Drosophila Shal2 (Kv4 subfamily) (Drosophila, UniProt P17971-1)
T2 sequence: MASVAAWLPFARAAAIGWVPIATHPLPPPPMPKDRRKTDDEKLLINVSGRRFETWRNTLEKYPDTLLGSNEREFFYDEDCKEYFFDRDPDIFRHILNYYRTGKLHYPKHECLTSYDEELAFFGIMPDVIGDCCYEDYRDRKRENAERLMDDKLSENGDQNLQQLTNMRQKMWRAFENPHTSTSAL

T3: NH2-terminal domain of rshal1 (a.a. 1-228) (Kv4.2) (rat, UniProt Q63881)
T3 sequence: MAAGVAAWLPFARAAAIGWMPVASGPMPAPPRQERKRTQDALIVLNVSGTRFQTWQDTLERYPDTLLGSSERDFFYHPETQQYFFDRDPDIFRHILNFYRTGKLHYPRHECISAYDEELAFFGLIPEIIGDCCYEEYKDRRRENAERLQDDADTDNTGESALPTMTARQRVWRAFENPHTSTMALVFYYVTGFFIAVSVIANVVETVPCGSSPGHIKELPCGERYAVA

T4: NH2-terminal domain of NGK2b (a.a. 1-180) (Kv3.1) (rat, UniProt P25122)
T4 sequence: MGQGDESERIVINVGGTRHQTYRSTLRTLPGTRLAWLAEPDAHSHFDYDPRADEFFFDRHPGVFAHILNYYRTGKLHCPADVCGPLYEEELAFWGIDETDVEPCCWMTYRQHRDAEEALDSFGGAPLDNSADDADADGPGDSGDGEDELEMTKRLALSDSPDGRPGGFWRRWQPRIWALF

T5: NH2-terminal domain of Drosophila Shaw2 (Kv3 subfamily) (Drosophila, UniProt P17972)
T5 sequence: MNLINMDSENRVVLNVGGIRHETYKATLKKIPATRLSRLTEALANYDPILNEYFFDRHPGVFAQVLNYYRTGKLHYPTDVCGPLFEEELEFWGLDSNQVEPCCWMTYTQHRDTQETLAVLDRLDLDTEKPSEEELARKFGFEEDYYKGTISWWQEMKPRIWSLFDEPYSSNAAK

B1: Kvβ2 (a.a. 1-367) (other)
chain: MYPESTTGSPARLSLRQTGSPGMIYSTRYGSPKRQLQFYRNLGKSGLRVSCLGLGTWVTFGGQITDEMAEHLMTLAYDNGINLFDTAEVYAAGKAEVVLGNIIKKKGWRRSSLVITTKIFWGGKAETERGLSRKHIIEGLKASLERLQLEYVDVVFANRPDPNTPMEEIVRAMTHVINQGMAMYWGTSRWSSMEIMEAYSVARQFNLIPPICEQAEYHMFQREKVEVQLPELFHKIGVGAMTWSPLACGIVSGKYDSGIPPYSRASLKGYQWLKDKILSEEGRRQQAKLKELQAIAERLGCTLPQLAIAWCLRNEGVSSVLLGASNAEQLMENIGAIQVLPKLSSSIVHEIDSILGNKPYSKKDYRS
B2: ΔKvβ2(39-367) (other)
chain: YRNLGKSGLRVSCLGLGTWVTFGGQITDEMAEHLMTLAYDNGINLFDTAEVYAAGKAEVVLGNIIKKKGWRRSSLVITTKIFWGGKAETERGLSRKHIIEGLKASLERLQLEYVDVVFANRPDPNTPMEEIVRAMTHVINQGMAMYWGTSRWSSMEIMEAYSVARQFNLIPPICEQAEYHMFQREKVEVQLPELFHKIGVGAMTWSPLACGIVSGKYDSGIPPYSRASLKGYQWLKDKILSEEGRRQQAKLKELQAIAERLGCTLPQLAIAWCLRNEGVSSVLLGASNAEQLMENIGAIQVLPKLSSSIVHEIDSILGNKPYSKKDYRS
B3: Kvβ1 (a.a. 1-401) (other)
chain: MQVSIACTEHNLKSRNGEDRLLSKQSSTAPNVVNAARAKFRTVAIIARSLGTFTPQHHISLKESTAKQTGMKYRNLGKSGLRVSCLGLGTWVTFGGQISDEVAERLMTIAYESGVNLFDTAEVYAAGKAEVILGSIIKKKGWRRSSLVITTKLYWGGKAETERGLSRKHIIEGLKGSLQRLQLEYVDVVFANRPDSNTPMEEIVRAMTHVINQGMAMYWGTSRWSAMEIMEAYSVARQFNMIPPVCEQAEYHLFQREKVEVQLPELYHKIGVGAMTWSPLACGIISGKYGNGVPESSRASLKCYQWLKERIVSEEGRKQQNKLKDLSPIAERLGCTLPQLAVAWCLRNEGVSSVLLGSSTPEQLIENLGAIQVLPKMTSHVVNEIDNILRNKPYSKKDYRS
B4: ΔKvβ2(39-316) (other)
chain: YRNLGKSGLRVSCLGLGTWVTFGGQITDEMAEHLMTLAYDNGINLFDTAEVYAAGKAEVVLGNIIKKKGWRRSSLVITTKIFWGGKAETERGLSRKHIIEGLKASLERLQLEYVDVVFANRPDPNTPMEEIVRAMTHVINQGMAMYWGTSRWSSMEIMEAYSVARQFNLIPPICEQAEYHMFQREKVEVQLPELFHKIGVGAMTWSPLACGIVSGKYDSGIPPYSRASLKGYQWLKDKILSEEGRRQQAKLKELQAIAERLGCTLPQLAIAWCLRNEG

Tests used:
[1] = biological target: T6, GAL4 transcription activation (TA) domain alone (Saccharomyces cerevisiae (strain ATCC …, UniProt P04386)); assay: yeast two-hybrid control (FIG. 6A, No. 1), growth on medium lacking histidine
Text: (§1) FIG. 6A depicts the results of a yeast two-hybrid assay wherein YGH1 yeast cells were transformed by different pairwise combinations of the two-hybrid constructs that express either fusion proteins of the DNA binding domain of GAL4 or the transcription activation domain of GAL4. […] In the middle panel, the transformants carrying the two different fusion proteins were first selected by dextrose synthetic drop-out medium with no supplement of leucine and tryptophan (SD, −leu, −trp, +his) to ensure that in different combinations the transformants have both plasmids. In the lower panel, identical numbers of cells in each combination were also dotted on the same medium without histidine (SD, −leu, −trp, −his). The transformants were allowed to grow at 30° C. for 65 hours.
To begin the test, the NH_2-terminal domain and COOH-terminal domain of Kv1.4 (RCK4) were subcloned. These truncated cytoplasmic fragments, i.e., the NH_2-terminal domain (a.a. 1–306) and COOH-terminal domain (a.a. 566–651), were expressed individually with Kvβ2 as GAL4 fusion proteins. Using this methodology, if Kvβ2 were to interact with one or both truncated Kv1.4 fragments, the resultant interaction(s) would confer the ability upon the yeast transformants to grow on synthetic medium lacking histidine. Table 2 below defines the conditions of the yeast two-hybrid system in FIG. 6A.

[2] = biological target: T7, COOH-terminal domain of RCK4 (CRCK4, a.a. 566-651) (rat, UniProt P15385); assay: yeast two-hybrid, growth on medium lacking histidine; similar results with a β-galactosidase assay
Text: as §1
To begin the test, the NH_2-terminal domain and COOH-terminal domain of Kv1.4 (RCK4) were subcloned. These truncated cytoplasmic fragments, i.e., the NH_2-terminal domain (a.a. 1–306) and COOH-terminal domain (a.a. 566–651), were expressed individually with Kvβ2 as GAL4 fusion proteins. […]
Similar results were obtained using a β-galactosidase assay (data not shown). Thus, like Kvβ1, Kvβ2 was determined to interact with the NH_2-terminal domain of the Kv1.4 α-subunit.

[3] = biological target: T1, NH2-terminal domain of DRK1 (a.a. …); assay: yeast two-hybrid, growth on medium lacking histidine
Text: as §1, with “6B” for “6A”
(§2) In the case of Kvβ1, its subfamily-specific association with the NH_2-terminal domains of Kv1 α-subunits is essential for the Kvβ1-mediated inactivation. […] What is not known, however, is whether the failure to detect the Kv2.1-Kvβ2 complex is due to the incompatibility of these two subunits to interact or their limited overlapping expression in vivo. To test the specificity of the Kvβ2-α (interaction, pairwise combinations of Kvβ2 and the NH_2-terminal domains of eight different α-subunits were analyzed in the yeast two hybrid system. The eight α-subunits included were: ShB (Kamb et al., *Cell*, 50, 405–413 (1987); Pongs et al., *EMBO J.*, 7, (1988); Tempel et al., *Science*, 237, 770–775, (1987), Shabll, Shaw2, and Shal2 from Drosophila (Butler et al., *Nucleic Acids Res.*, 18, 2173–2174 (1990); Kv1.4 (or RCK4) (Stuhmer et al., *EMBO J.*, 8, 3235–3244 (1989), Kv2.1 (or DPK1) (Frech et al., *Nature*, 340, 642–645 (1989), Kv3.1 (or NGK2b) (Yokoyama et al., *FEBS Lett.*, 259, 37–42 (1989), and Kv4.2(or rShal1) (Baldwin et al., *Neuron*, 7, 471–483 (1991); Roberds et al., *Proc. Natl. Acad. Sci. USA*, 88, 1798–1802 (1991)) from rat.

[4] = biological target: T2, NH2-terminal domain of Drosophila Shal2 …; assay: as above
Text: as §1, with “6B” for “6A”
as §2

[5] = biological target: T3, NH2-terminal domain of rshal1 (a.a. …); assay: as above
Text: as §1, with “6B” for “6A”
as §2

[6] = biological target: T4, NH2-terminal domain of NGK2b (a.a. …); assay: as above
Text: as §1, with “6B” for “6A”
as §2

[7] = biological target: T5, NH2-terminal domain of Drosophila Shaw2 …; assay: as above
Text: as §1, with “6B” for “6A”
as §2

[8] = biological target: B3; assay: cell-based or functional assay
[9] = biological target: ShBΔ(6-46) (Drosophila, UniProt P08510); assay: cell-based or functional assay
[10] = biological target: GAL4 DNA binding (DB) domain alone (Saccharomyces cerevisiae (strain ATCC …, UniProt P04386)); assay: yeast two-hybrid control, growth on medium lacking histidine
Text: (§3) Figure 2: FIG. 2 depicts the results of a yeast two-hybrid assay wherein YGH1 yeast cells were transformed by different pairwise combinations of the two-hybrid constructs that express either fusion proteins of the DNA binding domain of GAL4 or the transcription activation domain of GAL4. […] In the middle panel, the transformants carrying the two different fusion proteins were first selected by dextrose synthetic drop-out medium with no supplement of leucine and tryptophan (SD, −leu, −trp, +his) to ensure that in different combinations the transformants have both plasmids. In the lower panel, the identical number of cells in each combination were also dotted on the same medium without histidine (SD, −leu, −trp, −his). The transformants were allowed to grow at 30° C. for 65 hours.
(§4) Cytoplasmic NH_2— and COOH— terminal domains of different α-subunits were subcloned and expressed as fusion proteins of the GAL4 DNA binding (DB) domain. Kvβ1 was expressed as a fusion protein of either the GAL4 DNA binding (DB) domain or transcription activation (TA) domain. […] When Kvβ1 was coexpressed with the NH_2-terminal domain of RCK4 (NRCK4) (a.a. 1–306; an α-subunit sensitive to Kvβ1-mediated inactivation), the yeast transformants grew on a selective medium (FIG. 2, No. 1).

[11] = biological target: T6, GAL4 transcription activation (TA) …; assay: as above
Text: as §3, §4

[12] = biological target: T7, COOH-terminal domain of RCK4 (CRCK4, …); assay: yeast two-hybrid, growth on medium lacking histidine
Text: as §1, with “6B” for “6A”
as §2

binding result [1] | binding result [2] | binding result [3] | binding result [4] | binding result [5] | binding result [6] | binding result [7] | percent of recorded cells with fast inactivation, whole cell voltage clamp recording of transfected COS cells [8] | percent of recorded cells with fast inactivation, whole cell voltage clamp recording of transfected COS cells [9] | binding result [10] | binding result [11] | binding result [12] | Binder
no binding | no binding | no binding | no binding | no binding | no binding | no binding | – | – | – | – | – | B1
– | – | – | – | – | – | – | 22.5 % of cells | 22.5 % of cells | – | – | – | B2
– | – | no binding | – | no binding | no binding | – | – | – | no binding | no binding | no binding | B3
– | – | – | – | – | – | – | 61 % of cells | 61 % of cells | – | – | – | B4
